Measured values reported in paper PMC5087665.

Molecular target: CFF–Myc
Experiment: co-IP; Fig. 5D: HEK293T lysates co-expressing HA–TNPO1, CFF–Myc and GFP–Rab8-wt, GFP–Rab8-QL, GFP–Rab8-TN or GFP; anti-Myc immunoprecipitation; blotted for TNPO1 and GFP chimeras

Chain of HA–TNPO1 (Q92973 whole entry): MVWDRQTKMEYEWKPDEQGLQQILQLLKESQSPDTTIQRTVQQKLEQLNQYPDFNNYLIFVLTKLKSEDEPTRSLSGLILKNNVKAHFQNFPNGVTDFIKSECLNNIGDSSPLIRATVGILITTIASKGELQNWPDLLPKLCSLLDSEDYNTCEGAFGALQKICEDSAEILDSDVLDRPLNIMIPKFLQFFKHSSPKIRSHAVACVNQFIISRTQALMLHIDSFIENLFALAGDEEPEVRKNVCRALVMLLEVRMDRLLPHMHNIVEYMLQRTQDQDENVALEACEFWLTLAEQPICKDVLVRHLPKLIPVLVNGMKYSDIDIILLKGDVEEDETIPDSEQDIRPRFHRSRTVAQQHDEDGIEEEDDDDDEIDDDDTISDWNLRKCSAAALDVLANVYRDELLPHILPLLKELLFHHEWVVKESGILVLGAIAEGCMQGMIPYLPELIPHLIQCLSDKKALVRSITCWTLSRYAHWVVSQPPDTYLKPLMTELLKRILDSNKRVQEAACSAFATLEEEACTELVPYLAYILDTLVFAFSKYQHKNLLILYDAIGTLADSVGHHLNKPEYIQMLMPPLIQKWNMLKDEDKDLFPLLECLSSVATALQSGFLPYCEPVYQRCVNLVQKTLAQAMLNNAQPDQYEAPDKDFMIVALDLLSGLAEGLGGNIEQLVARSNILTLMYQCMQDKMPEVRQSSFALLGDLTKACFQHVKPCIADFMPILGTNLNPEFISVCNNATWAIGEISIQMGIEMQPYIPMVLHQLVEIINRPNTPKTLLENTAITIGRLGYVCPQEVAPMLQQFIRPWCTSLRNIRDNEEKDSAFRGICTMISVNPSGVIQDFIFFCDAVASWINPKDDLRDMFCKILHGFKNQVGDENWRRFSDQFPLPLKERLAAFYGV

- fold more TNPO1 co-immunoprecipitated with Rab8-TN co-expressed than with Rab8-QL or Rab8-wt: 3 fold
Substance: HA–TNPO1 (from UniProt Q92973 1-898) (natural protein)
